Reference: publication PMC3024946, “Hydroxyproline-containing collagen analogs trigger the release and activation of collagen-sequestered proMMP-2 by competition with prodomain-derived peptide P33-42” (Fibrogenesis & Tissue Repair, 2011)

Key:
Parameters in all cases: species or system human
[1] = test system: ActMMP-2; assay: Solid-phase binding of [125I]-actMMP-2 to immobilized collagens/peptides (microwells); settings: ActMMP-2, 2 ng/well; coated wells; 4°C, 2 h; residual radioactivity; mean ± SD, at least five experiments in triplicate
Protocol: (§1) Human recombinant proMMPs and in vitro activated MMPs were obtained from Invitek and were labeled with the [^125I]-Bolton-Hunter reagent according to the manufacturer's instructions (PerkinElmer, Rodgau, Germany) before the buffer was exchanged for phosphate-buffered saline (PBS) with 0.05% (vol/vol) Tween 20 by gel filtration as described previously. Specific radioactivity for [^125I]-MMPs was 3-9 × 10^4 cpm/ng. Precipitation with 10% (wt/vol) trichloroacetic acid and 200 μg of BSA recovered 96% to 100% of protein-bound radioactivity. Aliquots of labeled MMPs were frozen and stored at -80°C. […]
(§2) The following collagen analogs and control peptides were synthesized as described previously: (GPO)10, H-Gly-Cys-Hyp-(Gly-Pro-Hyp)10-Gly-Cys-Hyp-Gly-NH2; (GPP)10, H-Gly-Cys-Pro-(Gly-Pro-Pro)10-Gly-Cys-Pro-Gly-NH2; and GAP, H-Gly-Ala-Cys-(Gly-Ala-Pro)5-Gly-Phe-Hyp-Gly-Glu-Arg-(Gly-Ala-Pro)5-NH2. […] Graphs were calculated from the primary data using a custom fitting program written by D.A. Slatter (Department of Biochemistry, University of Cambridge, Cambridge, UK [48]) to model different possible transitions. […]
(§3) ProMMP-2 and proMMP-9 or actMMP-2 and actMMP-9 were bound to nitrocellulose and polystyrene-immobilized native collagens, CI chains, CB peptides or structural analogs. […] Membranes were washed again and air-dried, and bound MMP was monitored by autoradiography. […]

[2] = test system: ActMMP-9; assay: Solid-phase binding of [125I]-actMMP-9 to immobilized collagens/peptides (microwells); settings: ActMMP-9, 2 ng/well; coated wells; 4°C, 2 h; residual radioactivity; mean ± SD, at least five experiments in triplicate
Protocol: as §1, §2, §3

[3] = test system: ProMMP-2; assay: Solid-phase binding of [125I]-proMMP-2 to immobilized collagens/peptides (microwells); settings: ProMMP-2, 2 ng/well; coated wells; 4°C, 2 h; residual radioactivity; mean ± SD, at least five experiments in triplicate
Protocol: as §1, §2, §3

[4] = test system: ProMMP-9; assay: Solid-phase binding of [125I]-proMMP-9 to immobilized collagens/peptides (microwells); settings: ProMMP-9, 2 ng/well; coated wells; 4°C, 2 h; residual radioactivity; mean ± SD, at least five experiments in triplicate
Protocol: as §1, §2, §3

- Binding of [125I]-MMPs [1]: 14.3 ± 5.8 % of maximum control
- Binding of [125I]-MMPs [2]: 5.0 ± 0.4 % of maximum control
- Binding of [125I]-MMPs [3]: 40.0 ± 5.0 % of maximum control
- Binding of [125I]-MMPs [4]: 45.0 ± 2.0 % of maximum control
B1: CIII: native human collagen type III (protein)
chain: QQEAVEGGCSHLGQSYADRDVWKPEPCQICVCDSGSVLCDDIICDDQELDCPNPEIPFGECCAVCPQPPTAPTRPPNGQGPQGPKGDPGPPGIPGRNGDPGIPGQPGSPGSPGPPGICESCPTGPQNYSPQYDSYDVKSGVAVGGLAGYPGPAGPPGPPGPPGTSGHPGSPGSPGYQGPPGEPGQAGPSGPPGPPGAIGPSGPAGKDGESGRPGRPGERGLPGPPGIKGPAGIPGFPGMKGHRGFDGRNGEKGETGAPGLKGENGLPGENGAPGPMGPRGAPGERGRPGLPGAAGARGNDGARGSDGQPGPPGPPGTAGFPGSPGAKGEVGPAGSPGSNGAPGQRGEPGPQGHAGAQGPPGPPGINGSPGGKGEMGPAGIPGAPGLMGARGPPGPAGANGAPGLRGGAGEPGKNGAKGEPGPRGERGEAGIPGVPGAKGEDGKDGSPGEPGANGLPGAAGERGAPGFRGPAGPNGIPGEKGPAGERGAPGPAGPRGAAGEPGRDGVPGGPGMRGMPGSPGGPGSDGKPGPPGSQGESGRPGPPGPSGPRGQPGVMGFPGPKGNDGAPGKNGERGGPGGPGPQGPPGKNGETGPQGPPGPTGPGGDKGDTGPPGPQGLQGLPGTGGPPGENGKPGEPGPKGDAGAPGAPGGKGDAGAPGERGPPGLAGAPGLRGGAGPPGPEGGKGAAGPPGPPGAAGTPGLQGMPGERGGLGSPGPKGDKGEPGGPGADGVPGKDGPRGPTGPIGPPGPAGQPGDKGEGGAPGLPGIAGPRGSPGERGETGPPGPAGFPGAPGQNGEPGGKGERGAPGEKGEGGPPGVAGPPGGSGPAGPPGPQGVKGERGSPGGPGAAGFPGARGLPGPPGSNGNPGPPGPSGSPGKDGPPGPAGNTGAPGSPGVSGPKGDAGQPGEKGSPGAQGPPGAPGPLGIAGITGARGLAGPPGMPGPRGSPGPQGVKGESGKPGANGLSGERGPPGPQGLPGLAGTAGEPGRDGNPGSDGLPGRDGSPGGKGDRGENGSPGAPGAPGHPGPPGPVGPAGKSGDRGESGPAGPAGAPGPAGSRGAPGPQGPRGDKGETGERGAAGIKGHRGFPGNPGAPGSPGPAGQQGAIGSPGPAGPRGPVGPSGPPGKDGTSGHPGPIGPPGPRGNRGERGSEGSPGHPGQPGPPGPPGAPGPCCGGVGAAAIAGIGGEKAGGFAPYYG
